From patent US20050163770A1 (CONNEX, published 2005)
Ends that are not written are not given here.

Legend:
[1] = molecular target: T1, zeta-peptide-BSA-conjugate (not fully specified (residue 11); also: C-terminal Cys thiol coupled to BSA); assay: ELISA of rat hybridoma supernatants (diluted 1:1) on immobilized zeta-peptide-BSA-conjugate
T1 construct: also called zeta-peptide conjugated to bovine serum albumin
T1 peptide: QSFGLLDPKLC

[2] = molecular target: T2, human zeta-chain on the surface of CD8+ T-lymphocytes and NK-cells (human, UniProt P20963 22-164); assay: flow cytometry on human PBMC gated for CD8+ T-lymphocytes and NK-cells
T2 construct: whole, on cells; also called extracellular domain of the human zeta-chain on intact cells
Method: FIG. 3: Flowcytometry-analysis of the zeta-chain specific binding activity of the 2-B-5 antibody on the surface of CD8⁺-T-lymphocytes and NK-cells. 100.000 mononucleated cells from peripheral blood of two different healthy donors were incubated with undiluted cell culture supernatant of the 2-B-5 hybridoma. Bound zeta-chain specific rat antibody was detected by a fluorescein (FITC) conjugated goat-anti-rat Ig (IgG+IgM) antibody diluted 1:100 in PBS. Triple color fluorescence analysis was carried out by applying a positive gate for CD8⁺ (Tricolor) and a negative gate for CD16⁺ (PE) cells thus allowing the detection of FITC-mediated fluorescence (filled lines) exclusively attributed to CD8⁺-T-lymphocytes (phenotype: CD8⁺, CD16⁻) without any contaminating signals from CD8⁺-NK-cells. Similarly, triple color fluorescence analysis was carried out by applying a positive gate for CD56⁺-(PE) and a negative gate for CD3⁺-cells (tricolor) thus allowing the detection of FITC-mediated fluorescence (filled lines) exclusively attributed to NK-cells (phenotype: CD56⁺, CD3⁻) without any contaminating signals from CD56⁺-T-lymphocytes. As isotype control (broken lines) culture supernatant of an antibody with the same isotype (rat IgM) but irrelevant specificity was used. […] Cells were analyzed by flowcytometry on a FACS-scan (Becton Dickinson).

[3] = molecular target: T3, native zeta-chain from the lysate of CD8+ T-lymphocytes (human, UniProt P20963 22-164); assay: sandwich ELISA: zeta-chain from lysate captured by the antibody to amino acids 144-163, 2-B-5 at 1 ug/ml
T3 construct: Endogenous protein in a detergent lysate, captured on the plate by an antibody to the C-terminus; also called zeta-chain molecules from the T-cell lysate
Method: FIG. 4: Results of a Sandwich-ELISA confirming the reactivity of antibody 2-B-5 with native zeta-chain present in the lysate of the CD8⁺-T-cell lymphocytes. A zeta-chain specific antibody, which recognizes the amino acids 144-163 at the carboxy-terminus of the human zeta chain was coated for 12 hours to the wells of a 96 U-bottom plate, followed by blockade for one hour at room temperature with PBS/3% BSA. Subsequently the lysate of CD8⁺-cells was added undiluted and in several dilutions and incubated for one hour at room temperature. As negative control, the wells were incubated with PBS instead of the cell lysate. […] Bound 2-B-5 antibody was detected with a biotinylated mouse-anti-rat IgM antibody followed by an Avidin-peroxidase-conjugate. […] The colored precipitate was measured at 405 nm using an ELISA-reader.
A zeta-chain specific antibody (Santa Cruz Biotechnology, Cat-No 1124), which recognizes the amino acids 144-163 at the carboxy-terminus of the zeta chain was coated to wells of a 96 U-bottom plate (Nunc, maxisorb) at a concentration of 5 μg/ml. […] Bound 2-B-5 antibody was detected with a biotinylated mouse-anti-rat IgM antibody (Zymed, San Francisco, Calif., USA; Cat-No 03-9840; working concentration 400 ng/ml) followed by an Avidin-peroxidase-conjugate (Dako, Hamburg; Code-No P 03347; working concentration 1 μg/ml). […]

Measured: binding result

T3 sequence (P20963 22-164 limits assumed): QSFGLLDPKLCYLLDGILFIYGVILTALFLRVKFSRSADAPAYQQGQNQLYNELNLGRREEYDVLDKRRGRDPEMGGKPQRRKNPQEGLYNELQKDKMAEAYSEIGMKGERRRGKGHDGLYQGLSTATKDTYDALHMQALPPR
T2 sequence (P20963 22-164): as the sequence (P20963 22-164 limits assumed) above

B1: rat monoclonal anti-zeta-chain antibody 2-B-5 (rat IgM) (antibody, V domains shown)
VH: QVQLQQSGAELVKPGSSVKISCKASGYTFTSYDMHWIKQQPGNGLEWIGWIYPGNGNTKYNQKFNGKATLTADKSSSTAYMQLSSLTSEDSAVYFCARDWHYYSSYIRPFAYWGQGTLVTVSS
VL: DIQMTQSPASLSASPEEIVTITCQASQDIGNWLAWYQQKPGKSPQLLIYSATSLADGIPSRFSGSRSGTQYSLKISRLQVEDTGIYYCLQRYSNPNTFGAGTKLELK
notes: Rat IgM with kappa light chain; Used as hybridoma culture supernatant or purified by ion exchange chromatography; The constant regions are rat mu and kappa; also called 2-B-S; 2-B-5 hybridoma antibody
binds: [1] | [2] | [3]
